Target: azurin from Pseudomonas aeruginosa (Pseudomonas aeruginosa) (UniProt P00282)
Experiment: SPR equilibrium titration, azurin immobilised on CM5

azurin from Pseudomonas aeruginosa (Pseudomonas aeruginosa), sequence (P00282 21-148 limits assumed): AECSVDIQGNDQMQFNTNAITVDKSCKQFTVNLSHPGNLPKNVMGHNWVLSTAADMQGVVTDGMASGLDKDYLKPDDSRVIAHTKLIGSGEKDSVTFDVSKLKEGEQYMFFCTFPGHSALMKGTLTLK

NCAM (from UniProt P13591 20-718) (receptor)
Kd: 20 nM
